Values of other authors as cited in publication PMC5488128 (CPT: Pharmacometrics & Systems Pharmacology, 2017).

Assays:
[1] = subcutaneously applied, tested up to 30U
[2] = system: glucose infusion rate (GIR); details: type-1 patients, up to 90U insulin Lispro, GIR recording time of 12 h

| Substance | dose proportionality of exposure [1] | ED50 [2] [U] |
| --- | --- | --- |
| RHI: subcutaneously (s.c.) administered regular human insulin | dose‐proportional |  |
| insulin lispro: prandial insulin analog, comparator in clamp study NCT02470637 |  | 51 |
